Measurements as given in article PMC5283298.

Legend:
[1] = target: HaloTag-KIF21B full-length (FL); assay: single-molecule photobleaching step counting
[2] = target: microtubules (polymer of alpha and beta tubulin); assay: single-molecule TIRF microscopy on microtubules
HaloTag-KIF21B 1-657 = assay: single-molecule photobleaching step counting

HaloTag-KIF21B 1-657 (domain or fragment), sequence (O75037 1-657): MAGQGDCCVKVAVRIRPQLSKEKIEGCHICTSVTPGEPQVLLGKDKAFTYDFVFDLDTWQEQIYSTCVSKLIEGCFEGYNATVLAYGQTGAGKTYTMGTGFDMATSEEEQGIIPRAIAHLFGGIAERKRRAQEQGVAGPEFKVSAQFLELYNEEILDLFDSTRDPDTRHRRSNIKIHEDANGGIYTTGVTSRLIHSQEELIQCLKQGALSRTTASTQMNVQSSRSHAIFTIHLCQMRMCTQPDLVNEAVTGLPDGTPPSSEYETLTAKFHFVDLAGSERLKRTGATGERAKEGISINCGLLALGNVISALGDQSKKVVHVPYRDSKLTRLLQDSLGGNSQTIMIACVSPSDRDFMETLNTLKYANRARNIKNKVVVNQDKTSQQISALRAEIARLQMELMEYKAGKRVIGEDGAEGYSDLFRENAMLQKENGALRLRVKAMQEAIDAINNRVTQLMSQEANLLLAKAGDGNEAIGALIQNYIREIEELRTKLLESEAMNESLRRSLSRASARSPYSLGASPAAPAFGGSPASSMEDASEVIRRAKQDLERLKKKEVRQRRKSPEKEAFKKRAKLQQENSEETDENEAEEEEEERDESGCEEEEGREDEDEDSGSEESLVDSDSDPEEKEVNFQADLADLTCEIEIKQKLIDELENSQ
microtubules (polymer of alpha and beta tubulin), sequence (P68363 whole entry, chain 1 of 2): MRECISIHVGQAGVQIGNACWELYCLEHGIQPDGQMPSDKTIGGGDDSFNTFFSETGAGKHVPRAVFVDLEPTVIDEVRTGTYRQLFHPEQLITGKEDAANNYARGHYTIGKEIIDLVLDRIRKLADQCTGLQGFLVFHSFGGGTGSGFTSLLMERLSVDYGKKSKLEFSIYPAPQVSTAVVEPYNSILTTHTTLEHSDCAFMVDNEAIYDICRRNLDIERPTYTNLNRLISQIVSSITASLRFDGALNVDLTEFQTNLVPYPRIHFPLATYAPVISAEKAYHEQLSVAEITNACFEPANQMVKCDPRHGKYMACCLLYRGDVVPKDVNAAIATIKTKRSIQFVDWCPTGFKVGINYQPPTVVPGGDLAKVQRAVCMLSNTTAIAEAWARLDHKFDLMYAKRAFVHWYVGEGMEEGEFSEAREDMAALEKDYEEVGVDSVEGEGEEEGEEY
microtubules (polymer of alpha and beta tubulin), sequence (A8K068 whole entry, chain 2 of 2, further chain): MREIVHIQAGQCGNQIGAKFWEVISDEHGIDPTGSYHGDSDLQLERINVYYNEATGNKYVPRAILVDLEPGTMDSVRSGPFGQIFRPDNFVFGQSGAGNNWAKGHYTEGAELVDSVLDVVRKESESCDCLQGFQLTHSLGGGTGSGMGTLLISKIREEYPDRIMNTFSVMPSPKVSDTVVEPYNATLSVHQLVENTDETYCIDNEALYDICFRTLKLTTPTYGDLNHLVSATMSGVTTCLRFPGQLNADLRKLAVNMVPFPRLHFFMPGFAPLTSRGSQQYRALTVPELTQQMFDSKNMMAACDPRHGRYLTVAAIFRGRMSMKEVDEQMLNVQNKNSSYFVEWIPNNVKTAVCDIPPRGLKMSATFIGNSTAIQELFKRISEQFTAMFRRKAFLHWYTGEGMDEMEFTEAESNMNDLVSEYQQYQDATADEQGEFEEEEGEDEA
HaloTag-KIF21B full-length (FL) (natural protein), sequence (O75037 whole entry): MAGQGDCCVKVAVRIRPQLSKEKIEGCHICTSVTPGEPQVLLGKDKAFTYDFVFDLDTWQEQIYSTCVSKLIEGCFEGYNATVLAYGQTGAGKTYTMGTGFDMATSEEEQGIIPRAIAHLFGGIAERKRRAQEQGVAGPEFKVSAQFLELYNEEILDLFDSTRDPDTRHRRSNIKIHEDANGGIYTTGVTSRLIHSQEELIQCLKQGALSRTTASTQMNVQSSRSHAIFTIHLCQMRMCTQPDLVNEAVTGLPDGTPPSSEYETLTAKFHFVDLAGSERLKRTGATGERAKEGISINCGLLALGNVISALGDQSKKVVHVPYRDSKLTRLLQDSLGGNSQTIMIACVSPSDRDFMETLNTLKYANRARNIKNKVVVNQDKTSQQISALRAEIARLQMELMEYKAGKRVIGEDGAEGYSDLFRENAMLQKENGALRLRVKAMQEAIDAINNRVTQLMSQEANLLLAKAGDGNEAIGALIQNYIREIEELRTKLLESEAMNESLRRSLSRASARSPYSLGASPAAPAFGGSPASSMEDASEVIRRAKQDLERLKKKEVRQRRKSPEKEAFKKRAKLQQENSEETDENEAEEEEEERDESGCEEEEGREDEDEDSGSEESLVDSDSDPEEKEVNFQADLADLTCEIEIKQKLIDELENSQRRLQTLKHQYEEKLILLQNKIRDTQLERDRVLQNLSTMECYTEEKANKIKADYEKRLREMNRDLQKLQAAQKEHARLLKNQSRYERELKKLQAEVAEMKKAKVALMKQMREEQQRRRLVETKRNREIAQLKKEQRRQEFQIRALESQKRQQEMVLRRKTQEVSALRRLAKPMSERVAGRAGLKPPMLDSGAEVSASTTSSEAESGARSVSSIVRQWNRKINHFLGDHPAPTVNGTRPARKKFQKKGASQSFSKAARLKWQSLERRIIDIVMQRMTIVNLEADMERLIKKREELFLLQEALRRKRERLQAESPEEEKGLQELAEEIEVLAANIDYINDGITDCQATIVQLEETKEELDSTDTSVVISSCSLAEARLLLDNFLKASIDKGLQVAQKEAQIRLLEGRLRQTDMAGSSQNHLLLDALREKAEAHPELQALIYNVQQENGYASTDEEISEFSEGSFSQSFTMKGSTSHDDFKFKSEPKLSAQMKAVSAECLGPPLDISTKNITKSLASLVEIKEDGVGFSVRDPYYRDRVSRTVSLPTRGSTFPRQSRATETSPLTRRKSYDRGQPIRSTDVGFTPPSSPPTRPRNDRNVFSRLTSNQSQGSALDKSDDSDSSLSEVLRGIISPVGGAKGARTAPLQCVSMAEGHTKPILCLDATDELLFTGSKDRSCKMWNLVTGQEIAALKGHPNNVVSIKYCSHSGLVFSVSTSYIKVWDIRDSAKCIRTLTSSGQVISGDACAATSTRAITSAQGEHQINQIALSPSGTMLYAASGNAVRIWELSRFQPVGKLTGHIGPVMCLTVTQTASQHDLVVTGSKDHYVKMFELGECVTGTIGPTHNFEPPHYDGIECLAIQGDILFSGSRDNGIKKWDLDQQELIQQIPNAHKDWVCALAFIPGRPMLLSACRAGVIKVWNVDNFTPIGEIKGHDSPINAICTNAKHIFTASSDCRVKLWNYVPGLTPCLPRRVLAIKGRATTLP

| stoichiometry N [1] | particles per μm MT (particles/μm MT) [2] | stoichiometry N (HaloTag-KIF21B 1-657) | Substance |
| --- | --- | --- | --- |
| 2 | 0.5 |  | HaloTag-KIF21B full-length (FL) (natural protein) |
|  | 0.067 | 2 | HaloTag-KIF21B 1-657 (domain or fragment) |
